± gives the standard error. For part of these data: Variants at the floor of the assay were thinned out.
B1: glmS ribozyme (parent)
chain: AUAAAAGCGCCAGAACUACAGAAAUGUAGUUGACGAGGAGGAGGUUUAUCGAAUUUUCGGCGGAUGCCUCCAAA

Experiments:
Conditions in all cases: with glucosamine-6-phosphate
[1] = variants of: B1; test: kcat; higher = faster cleavage; RNA array
How it was run: (§1)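 Ribozyme variants carrying barcodes were transcribed in situ on sequenced MiSeq chips by E. coli RNA polymerase and tracked at 37 °C with a hybridised Cy3 probe. They were exposed to 40 μM to 10 mM glucosamine-6-phosphate in HEPES/KCl/Mg(OAc)2 buffer. kobs came from exponential decay fits of normalised per-tile medians, and kcat and KM from weighted Michaelis–Menten fits.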

[2] = variants of: B1; test: KM; higher = weaker cofactor use; RNA array
How it was run: as §1

[3] = variants of: B1; test: self-cleavage kobs at 160 uM GlcN6P; higher = faster cleavage; RNA array
How it was run: as §1

[4] = variants of: B1; test: self-cleavage kobs at 640 uM GlcN6P; higher = faster cleavage; RNA array
How it was run: as §1

[5] = variants of: B1; test: self-cleavage kobs at 2500 uM GlcN6P; higher = faster cleavage; RNA array
How it was run: as §1

[6] = variants of: B1; test: self-cleavage kobs at 10000 uM GlcN6P; higher = faster cleavage; RNA array
How it was run: as §1

[7] = variants of: B1; test: self-cleavage kobs at 40 uM GlcN6P; higher = faster cleavage; RNA array
How it was run: as §1

| Variant | kcat [1] | KM [2] | self-cleavage kobs at 160 uM GlcN6P [3] | self-cleavage kobs at 640 uM GlcN6P [4] | self-cleavage kobs at 2500 uM GlcN6P [5] | self-cleavage kobs at 10000 uM GlcN6P [6] | self-cleavage kobs at 40 uM GlcN6P [7] |
| --- | --- | --- | --- | --- | --- | --- | --- |
| G29A U45C | 0.000385 ± 7.7e-05 s⁻¹ | 2000 ± 720 µM | 3.6e-05 ± 1.4e-05 s⁻¹ | 8.28e-05 ± 1.4e-05 s⁻¹ | 0.000273 ± 4.1e-05 s⁻¹ | 0.000293 ± 5e-05 s⁻¹ | – |
| G13U U65G C67G | 7.46e-05 ± 2.9e-06 s⁻¹ | 808 ± 170 µM | – | – | 6.05e-05 ± 2.3e-05 s⁻¹ | 6.81e-05 ± 1.5e-05 s⁻¹ | – |
| G29A A52G | 0.000368 ± 9e-05 s⁻¹ | 3290 ± 1300 µM | – | 5.31e-05 ± 8.1e-06 s⁻¹ | 0.000207 ± 2.8e-05 s⁻¹ | 0.000255 ± 3.8e-05 s⁻¹ | – |
| G51A C70A | 2.99e-05 ± 7.1e-06 s⁻¹ | – | – | – | 3.24e-05 ± 1.5e-05 s⁻¹ | – | – |
| A15U U47G | 0.000703 ± 0.00012 s⁻¹ | 1160 ± 360 µM | 8.04e-05 ± 1.3e-05 s⁻¹ | 0.000238 ± 2.7e-05 s⁻¹ | 0.000473 ± 5.8e-05 s⁻¹ | 0.000653 ± 7.7e-05 s⁻¹ | 5.1e-05 ± 1.1e-05 s⁻¹ |
| U47C C58G G59A C61U C71A | 1.36e-05 ± 3.4e-06 s⁻¹ | – | – | – | – | – | – |
| C50U G66A | 0.000123 ± 5.1e-05 s⁻¹ | – | – | – | – | 4.11e-05 ± 9.9e-06 s⁻¹ | – |
| A12U U69A | 0.000227 ± 4.2e-05 s⁻¹ | – | 0.000124 ± 2.9e-05 s⁻¹ | 0.000292 ± 4.6e-05 s⁻¹ | 0.000186 ± 2.9e-05 s⁻¹ | 0.000303 ± 4.8e-05 s⁻¹ | 0.000106 ± 1.6e-05 s⁻¹ |
| G37U C67G | < 1e-05 s⁻¹ | – | – | – | – | < 1e-05 s⁻¹ | – |
| U31A C67A C68U | 6.87e-05 ± 1.5e-05 s⁻¹ | – | – | 0.000122 ± 3.5e-05 s⁻¹ | 7.63e-05 ± 1.4e-05 s⁻¹ | 5.53e-05 ± 1.3e-05 s⁻¹ | – |
| A15G C58U | 0.000166 ± 4e-05 s⁻¹ | – | – | – | 2.52e-05 ± 1.2e-05 s⁻¹ | 7.17e-05 ± 9.6e-06 s⁻¹ | – |
| A14U A64G | 0.00805 ± 0.003 s⁻¹ | 2740 ± 1300 µM | 0.000391 ± 4.2e-05 s⁻¹ | 0.00143 ± 0.00016 s⁻¹ | 0.00635 ± 0.00079 s⁻¹ | 0.00568 ± 0.00075 s⁻¹ | 0.000177 ± 2.5e-05 s⁻¹ |
| A53G U65A C67A | 0.000109 ± 1.9e-05 s⁻¹ | – | 8.41e-05 ± 2.3e-05 s⁻¹ | 0.000153 ± 3.7e-05 s⁻¹ | 0.000112 ± 2.9e-05 s⁻¹ | 9.28e-05 ± 2.4e-05 s⁻¹ | – |
| A15G A52U | 0.000384 ± 8.3e-05 s⁻¹ | 5400 ± 2000 µM | – | 3.21e-05 ± 7.2e-06 s⁻¹ | 0.000147 ± 1.6e-05 s⁻¹ | 0.00024 ± 2.3e-05 s⁻¹ | – |
| C61U A64G | 2.3e-05 ± 9.4e-07 s⁻¹ | 1200 ± 250 µM | < 1e-05 s⁻¹ | – | – | – | < 1e-05 s⁻¹ |
| C16G G41A | 9.56e-05 ± 1.7e-05 s⁻¹ | – | < 1e-05 s⁻¹ | – | 7.9e-05 ± 1.8e-05 s⁻¹ | 7.96e-05 ± 1.2e-05 s⁻¹ | – |
| U49A C71A | < 1e-05 s⁻¹ | – | – | – | – | – | – |

| Variant | kcat [1] | KM [2] | self-cleavage kobs at 160 uM GlcN6P [3] | self-cleavage kobs at 640 uM GlcN6P [4] | self-cleavage kobs at 2500 uM GlcN6P [5] | self-cleavage kobs at 10000 uM GlcN6P [6] | self-cleavage kobs at 40 uM GlcN6P [7] |
| --- | --- | --- | --- | --- | --- | --- | --- |
| U49A C71G | 2.68e-05 ± 1e-05 s⁻¹ | – | – | 3.32e-05 ± 1.2e-05 s⁻¹ | – | – | – |
| A6C A12U | 0.000292 ± 1.8e-05 s⁻¹ | 2560 ± 310 µM | – | 5.62e-05 ± 7.4e-06 s⁻¹ | 0.000157 ± 1.8e-05 s⁻¹ | 0.000227 ± 2.1e-05 s⁻¹ | – |
| A42G A52G | 0.00211 ± 0.00034 s⁻¹ | 2550 ± 600 µM | 0.000117 ± 1.7e-05 s⁻¹ | 0.000471 ± 4.8e-05 s⁻¹ | 0.000991 ± 8.9e-05 s⁻¹ | 0.00187 ± 0.00037 s⁻¹ | – |
| C50U C58G | 1.24e-05 ± 3.2e-06 s⁻¹ | – | – | – | – | – | < 1e-05 s⁻¹ |
| A14C U56C | 0.000932 ± 0.00029 s⁻¹ | 4280 ± 2000 µM | 3.09e-05 ± 1.5e-05 s⁻¹ | 0.00014 ± 1.8e-05 s⁻¹ | 0.000275 ± 4.5e-05 s⁻¹ | 0.000754 ± 0.00012 s⁻¹ | – |
| U31C C68U | 0.000617 ± 9.3e-05 s⁻¹ | 1690 ± 450 µM | 5.34e-05 ± 8.6e-06 s⁻¹ | 0.000175 ± 1.2e-05 s⁻¹ | 0.000321 ± 2.9e-05 s⁻¹ | 0.000583 ± 4.8e-05 s⁻¹ | 3.14e-05 ± 9.7e-06 s⁻¹ |
| C70A C71A | 5.3e-05 ± 3.2e-06 s⁻¹ | 181 ± 74 µM | – | 4.65e-05 ± 9.4e-06 s⁻¹ | 4.82e-05 ± 7.4e-06 s⁻¹ | 5.11e-05 ± 9.4e-06 s⁻¹ | – |
| A14G G43A | 0.000321 ± 4.1e-05 s⁻¹ | 4730 ± 1200 µM | – | 4.36e-05 ± 1.3e-05 s⁻¹ | 0.000101 ± 2.2e-05 s⁻¹ | 0.000222 ± 3.1e-05 s⁻¹ | < 1e-05 s⁻¹ |
| C11U U54G | 0.00114 ± 0.00053 s⁻¹ | – | 0.000153 ± 2.1e-05 s⁻¹ | 0.000277 ± 3.9e-05 s⁻¹ | 0.000642 ± 9.5e-05 s⁻¹ | 0.00164 ± 0.00025 s⁻¹ | 5.3e-05 ± 1.1e-05 s⁻¹ |
| A12G G40C | 0.000334 ± 3.5e-05 s⁻¹ | 3830 ± 720 µM | – | 5.37e-05 ± 1e-05 s⁻¹ | 0.000124 ± 1.6e-05 s⁻¹ | 0.000248 ± 3.1e-05 s⁻¹ | – |
| G13U A14G C61U C70G | 1.9e-05 ± 5.3e-06 s⁻¹ | – | – | – | – | – | – |
| A15G U65A | 0.00646 ± 0.0018 s⁻¹ | 3290 ± 1300 µM | 0.000343 ± 0.00011 s⁻¹ | 0.000867 ± 0.00018 s⁻¹ | 0.00193 ± 0.00048 s⁻¹ | 0.00545 ± 0.00064 s⁻¹ | 9.64e-05 ± 1.3e-05 s⁻¹ |
| G13A U69A | 4.03e-05 ± 1.6e-05 s⁻¹ | – | – | – | 6.18e-05 ± 1.2e-05 s⁻¹ | – | – |
| G26U C67G | 0.000379 ± 7.2e-05 s⁻¹ | 901 ± 420 µM | – | 0.000245 ± 8.1e-05 s⁻¹ | 0.000254 ± 5.2e-05 s⁻¹ | 0.000395 ± 0.00012 s⁻¹ | – |
| G13U C67A | 0.000419 ± 9e-05 s⁻¹ | 2040 ± 670 µM | 3.99e-05 ± 9e-06 s⁻¹ | 9.71e-05 ± 9.5e-06 s⁻¹ | 0.000225 ± 2.3e-05 s⁻¹ | 0.000504 ± 0.00015 s⁻¹ | – |
| A39G C67A | 0.00703 ± 0.003 s⁻¹ | – | – | 0.00288 ± 0.00088 s⁻¹ | – | 0.00689 ± 0.0015 s⁻¹ | 0.000425 ± 7.2e-05 s⁻¹ |
| U65C C71G | 4.3e-05 ± 1.5e-05 s⁻¹ | – | – | – | 8.15e-05 ± 1.6e-05 s⁻¹ | 3.44e-05 ± 8.1e-06 s⁻¹ | < 1e-05 s⁻¹ |

Source: the supplement of paper PMC7125110
